Results: patent publication US20210388087A1 (Chugai, published 2021)

T1: Human CD3eg linker (human)
T1 construct: single-chain construct; also called recombinant human CD3
T1 chain: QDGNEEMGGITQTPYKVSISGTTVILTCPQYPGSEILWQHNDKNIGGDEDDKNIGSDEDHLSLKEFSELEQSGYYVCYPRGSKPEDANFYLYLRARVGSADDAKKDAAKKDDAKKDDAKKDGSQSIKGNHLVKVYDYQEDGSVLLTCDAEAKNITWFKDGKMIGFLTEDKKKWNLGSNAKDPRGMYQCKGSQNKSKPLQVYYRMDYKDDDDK


Molecular target: T1, Human CD3eg linker
Assay: SPR, vs unmutated H183/L072

| fold change of affinity [fold] | Binder |
| --- | --- |
| 0.9 | dBBDu183H A100T/dBBDu072L (antibody, name in Kabat numbering, V domains shown) VH: QVQLVESGGGLVQPGRSLRLSCAASGFTFSNAWMHWVRQAPGKGLEWVAQIKDKGNAYAAYYAPSVKGRFTISRDDSKNSIYLQMNSLKTEDTAVYYCHYVHYASTSTVLPAFGVDAWGQGTTVTVSS VL: DIVMTQSPLSLPVTPGEPASISCQASQELVHMNRNTYLHWYQQKPGQAPRLLIYKVSNRFPGVPDRFSGSGSGTDFTLKISRVEAEDVGVYYCAQGTSVPFTFGQGTKLEIK |
| 1 | dBBDu183H A100fV/dBBDu072L (antibody, name in Kabat numbering, V domains shown) VH: QVQLVESGGGLVQPGRSLRLSCAASGFTFSNAWMHWVRQAPGKGLEWVAQIKDKGNAYAAYYAPSVKGRFTISRDDSKNSIYLQMNSLKTEDTAVYYCHYVHYASASTVLPVFGVDAWGQGTTVTVSS VL: DIVMTQSPLSLPVTPGEPASISCQASQELVHMNRNTYLHWYQQKPGQAPRLLIYKVSNRFPGVPDRFSGSGSGTDFTLKISRVEAEDVGVYYCAQGTSVPFTFGQGTKLEIK |
| 1.6 | dBBDu183H A100fR/dBBDu072L (antibody, name in Kabat numbering, V domains shown) VH: QVQLVESGGGLVQPGRSLRLSCAASGFTFSNAWMHWVRQAPGKGLEWVAQIKDKGNAYAAYYAPSVKGRFTISRDDSKNSIYLQMNSLKTEDTAVYYCHYVHYASASTVLPRFGVDAWGQGTTVTVSS VL: DIVMTQSPLSLPVTPGEPASISCQASQELVHMNRNTYLHWYQQKPGQAPRLLIYKVSNRFPGVPDRFSGSGSGTDFTLKISRVEAEDVGVYYCAQGTSVPFTFGQGTKLEIK |
| 1.1 | dBBDu183H A102E/dBBDu072L (antibody, name in Kabat numbering, V domains shown) VH: QVQLVESGGGLVQPGRSLRLSCAASGFTFSNAWMHWVRQAPGKGLEWVAQIKDKGNAYAAYYAPSVKGRFTISRDDSKNSIYLQMNSLKTEDTAVYYCHYVHYASASTVLPAFGVDEWGQGTTVTVSS VL: DIVMTQSPLSLPVTPGEPASISCQASQELVHMNRNTYLHWYQQKPGQAPRLLIYKVSNRFPGVPDRFSGSGSGTDFTLKISRVEAEDVGVYYCAQGTSVPFTFGQGTKLEIK |
| 0.4 | dBBDu183H A100fD/dBBDu072L (antibody, name in Kabat numbering, V domains shown) VH: QVQLVESGGGLVQPGRSLRLSCAASGFTFSNAWMHWVRQAPGKGLEWVAQIKDKGNAYAAYYAPSVKGRFTISRDDSKNSIYLQMNSLKTEDTAVYYCHYVHYASASTVLPDFGVDAWGQGTTVTVSS VL: DIVMTQSPLSLPVTPGEPASISCQASQELVHMNRNTYLHWYQQKPGQAPRLLIYKVSNRFPGVPDRFSGSGSGTDFTLKISRVEAEDVGVYYCAQGTSVPFTFGQGTKLEIK |
| 1.7 | dBBDu183H A100fS/dBBDu072L (antibody, name in Kabat numbering, V domains shown) VH: QVQLVESGGGLVQPGRSLRLSCAASGFTFSNAWMHWVRQAPGKGLEWVAQIKDKGNAYAAYYAPSVKGRFTISRDDSKNSIYLQMNSLKTEDTAVYYCHYVHYASASTVLPSFGVDAWGQGTTVTVSS VL: DIVMTQSPLSLPVTPGEPASISCQASQELVHMNRNTYLHWYQQKPGQAPRLLIYKVSNRFPGVPDRFSGSGSGTDFTLKISRVEAEDVGVYYCAQGTSVPFTFGQGTKLEIK |
| 0.5 | dBBDu183H A100fE/dBBDu072L (antibody, name in Kabat numbering, V domains shown) VH: QVQLVESGGGLVQPGRSLRLSCAASGFTFSNAWMHWVRQAPGKGLEWVAQIKDKGNAYAAYYAPSVKGRFTISRDDSKNSIYLQMNSLKTEDTAVYYCHYVHYASASTVLPEFGVDAWGQGTTVTVSS VL: DIVMTQSPLSLPVTPGEPASISCQASQELVHMNRNTYLHWYQQKPGQAPRLLIYKVSNRFPGVPDRFSGSGSGTDFTLKISRVEAEDVGVYYCAQGTSVPFTFGQGTKLEIK |
| 1.4 | dBBDu183H A100fK/dBBDu072L (antibody, name in Kabat numbering, V domains shown) VH: QVQLVESGGGLVQPGRSLRLSCAASGFTFSNAWMHWVRQAPGKGLEWVAQIKDKGNAYAAYYAPSVKGRFTISRDDSKNSIYLQMNSLKTEDTAVYYCHYVHYASASTVLPKFGVDAWGQGTTVTVSS VL: DIVMTQSPLSLPVTPGEPASISCQASQELVHMNRNTYLHWYQQKPGQAPRLLIYKVSNRFPGVPDRFSGSGSGTDFTLKISRVEAEDVGVYYCAQGTSVPFTFGQGTKLEIK |
| 1.5 | dBBDu183H A100fG/dBBDu072L (antibody, name in Kabat numbering, V domains shown) VH: QVQLVESGGGLVQPGRSLRLSCAASGFTFSNAWMHWVRQAPGKGLEWVAQIKDKGNAYAAYYAPSVKGRFTISRDDSKNSIYLQMNSLKTEDTAVYYCHYVHYASASTVLPGFGVDAWGQGTTVTVSS VL: DIVMTQSPLSLPVTPGEPASISCQASQELVHMNRNTYLHWYQQKPGQAPRLLIYKVSNRFPGVPDRFSGSGSGTDFTLKISRVEAEDVGVYYCAQGTSVPFTFGQGTKLEIK |
| 1.2 | dBBDu183H A100fQ/dBBDu072L (antibody, name in Kabat numbering, V domains shown) VH: QVQLVESGGGLVQPGRSLRLSCAASGFTFSNAWMHWVRQAPGKGLEWVAQIKDKGNAYAAYYAPSVKGRFTISRDDSKNSIYLQMNSLKTEDTAVYYCHYVHYASASTVLPQFGVDAWGQGTTVTVSS VL: DIVMTQSPLSLPVTPGEPASISCQASQELVHMNRNTYLHWYQQKPGQAPRLLIYKVSNRFPGVPDRFSGSGSGTDFTLKISRVEAEDVGVYYCAQGTSVPFTFGQGTKLEIK |
| 1.2 | dBBDu183H A100fH/dBBDu072L (antibody, name in Kabat numbering, V domains shown) VH: QVQLVESGGGLVQPGRSLRLSCAASGFTFSNAWMHWVRQAPGKGLEWVAQIKDKGNAYAAYYAPSVKGRFTISRDDSKNSIYLQMNSLKTEDTAVYYCHYVHYASASTVLPHFGVDAWGQGTTVTVSS VL: DIVMTQSPLSLPVTPGEPASISCQASQELVHMNRNTYLHWYQQKPGQAPRLLIYKVSNRFPGVPDRFSGSGSGTDFTLKISRVEAEDVGVYYCAQGTSVPFTFGQGTKLEIK |
| 1.5 | dBBDu183H A100fY/dBBDu072L (antibody, name in Kabat numbering, V domains shown) VH: QVQLVESGGGLVQPGRSLRLSCAASGFTFSNAWMHWVRQAPGKGLEWVAQIKDKGNAYAAYYAPSVKGRFTISRDDSKNSIYLQMNSLKTEDTAVYYCHYVHYASASTVLPYFGVDAWGQGTTVTVSS VL: DIVMTQSPLSLPVTPGEPASISCQASQELVHMNRNTYLHWYQQKPGQAPRLLIYKVSNRFPGVPDRFSGSGSGTDFTLKISRVEAEDVGVYYCAQGTSVPFTFGQGTKLEIK |
| 0.7 | dBBDu183H A100fW/dBBDu072L (antibody, name in Kabat numbering, V domains shown) VH: QVQLVESGGGLVQPGRSLRLSCAASGFTFSNAWMHWVRQAPGKGLEWVAQIKDKGNAYAAYYAPSVKGRFTISRDDSKNSIYLQMNSLKTEDTAVYYCHYVHYASASTVLPWFGVDAWGQGTTVTVSS VL: DIVMTQSPLSLPVTPGEPASISCQASQELVHMNRNTYLHWYQQKPGQAPRLLIYKVSNRFPGVPDRFSGSGSGTDFTLKISRVEAEDVGVYYCAQGTSVPFTFGQGTKLEIK |
| 1.3 | dBBDu183H A102D/dBBDu072L (antibody, name in Kabat numbering, V domains shown) VH: QVQLVESGGGLVQPGRSLRLSCAASGFTFSNAWMHWVRQAPGKGLEWVAQIKDKGNAYAAYYAPSVKGRFTISRDDSKNSIYLQMNSLKTEDTAVYYCHYVHYASASTVLPAFGVDDWGQGTTVTVSS VL: DIVMTQSPLSLPVTPGEPASISCQASQELVHMNRNTYLHWYQQKPGQAPRLLIYKVSNRFPGVPDRFSGSGSGTDFTLKISRVEAEDVGVYYCAQGTSVPFTFGQGTKLEIK |
| 1.6 | dBBDu183H A100fT/dBBDu072L (antibody, name in Kabat numbering, V domains shown) VH: QVQLVESGGGLVQPGRSLRLSCAASGFTFSNAWMHWVRQAPGKGLEWVAQIKDKGNAYAAYYAPSVKGRFTISRDDSKNSIYLQMNSLKTEDTAVYYCHYVHYASASTVLPTFGVDAWGQGTTVTVSS VL: DIVMTQSPLSLPVTPGEPASISCQASQELVHMNRNTYLHWYQQKPGQAPRLLIYKVSNRFPGVPDRFSGSGSGTDFTLKISRVEAEDVGVYYCAQGTSVPFTFGQGTKLEIK |
| 1.3 | dBBDu183H A100fN/dBBDu072L (antibody, name in Kabat numbering, V domains shown) VH: QVQLVESGGGLVQPGRSLRLSCAASGFTFSNAWMHWVRQAPGKGLEWVAQIKDKGNAYAAYYAPSVKGRFTISRDDSKNSIYLQMNSLKTEDTAVYYCHYVHYASASTVLPNFGVDAWGQGTTVTVSS VL: DIVMTQSPLSLPVTPGEPASISCQASQELVHMNRNTYLHWYQQKPGQAPRLLIYKVSNRFPGVPDRFSGSGSGTDFTLKISRVEAEDVGVYYCAQGTSVPFTFGQGTKLEIK |
| 1.7 | dBBDu183H A100Y/dBBDu072L (antibody, name in Kabat numbering, V domains shown) VH: QVQLVESGGGLVQPGRSLRLSCAASGFTFSNAWMHWVRQAPGKGLEWVAQIKDKGNAYAAYYAPSVKGRFTISRDDSKNSIYLQMNSLKTEDTAVYYCHYVHYASYSTVLPAFGVDAWGQGTTVTVSS VL: DIVMTQSPLSLPVTPGEPASISCQASQELVHMNRNTYLHWYQQKPGQAPRLLIYKVSNRFPGVPDRFSGSGSGTDFTLKISRVEAEDVGVYYCAQGTSVPFTFGQGTKLEIK |
| 1.1 | dBBDu183H A100fF/dBBDu072L (antibody, name in Kabat numbering, V domains shown) VH: QVQLVESGGGLVQPGRSLRLSCAASGFTFSNAWMHWVRQAPGKGLEWVAQIKDKGNAYAAYYAPSVKGRFTISRDDSKNSIYLQMNSLKTEDTAVYYCHYVHYASASTVLPFFGVDAWGQGTTVTVSS VL: DIVMTQSPLSLPVTPGEPASISCQASQELVHMNRNTYLHWYQQKPGQAPRLLIYKVSNRFPGVPDRFSGSGSGTDFTLKISRVEAEDVGVYYCAQGTSVPFTFGQGTKLEIK |
| 1.9 | dBBDu183H A100W/dBBDu072L (antibody, name in Kabat numbering, V domains shown) VH: QVQLVESGGGLVQPGRSLRLSCAASGFTFSNAWMHWVRQAPGKGLEWVAQIKDKGNAYAAYYAPSVKGRFTISRDDSKNSIYLQMNSLKTEDTAVYYCHYVHYASWSTVLPAFGVDAWGQGTTVTVSS VL: DIVMTQSPLSLPVTPGEPASISCQASQELVHMNRNTYLHWYQQKPGQAPRLLIYKVSNRFPGVPDRFSGSGSGTDFTLKISRVEAEDVGVYYCAQGTSVPFTFGQGTKLEIK |
| 1.2 | dBBDu183H A100V/dBBDu072L (antibody, name in Kabat numbering, V domains shown) VH: QVQLVESGGGLVQPGRSLRLSCAASGFTFSNAWMHWVRQAPGKGLEWVAQIKDKGNAYAAYYAPSVKGRFTISRDDSKNSIYLQMNSLKTEDTAVYYCHYVHYASVSTVLPAFGVDAWGQGTTVTVSS VL: DIVMTQSPLSLPVTPGEPASISCQASQELVHMNRNTYLHWYQQKPGQAPRLLIYKVSNRFPGVPDRFSGSGSGTDFTLKISRVEAEDVGVYYCAQGTSVPFTFGQGTKLEIK |
